According to PMC5408928:

Biological target: yeast 80S ribosome (S. cerevisiae)
Experiment: crystal structure

Row | Substance | eIF5A-occupancy refinement (%)
1 | hypusinated eIF5A from Saccharomyces cerevisiae (from UniProt P23301 1-157) (natural protein) | 97%
2 | unmodified eIF5A from S. cerevisiae (from UniProt P23301 1-157) (natural protein) | 88%
